Reference: paper PMC12817190

How the values were obtained:
[1] = target: human fibrin (human) (UniProt P02671)
[2] = target: porcine fibrin (porcine) (UniProt P14460)

Sequence of UniProt P02671 (P02671 36-866, chain 1 of 3): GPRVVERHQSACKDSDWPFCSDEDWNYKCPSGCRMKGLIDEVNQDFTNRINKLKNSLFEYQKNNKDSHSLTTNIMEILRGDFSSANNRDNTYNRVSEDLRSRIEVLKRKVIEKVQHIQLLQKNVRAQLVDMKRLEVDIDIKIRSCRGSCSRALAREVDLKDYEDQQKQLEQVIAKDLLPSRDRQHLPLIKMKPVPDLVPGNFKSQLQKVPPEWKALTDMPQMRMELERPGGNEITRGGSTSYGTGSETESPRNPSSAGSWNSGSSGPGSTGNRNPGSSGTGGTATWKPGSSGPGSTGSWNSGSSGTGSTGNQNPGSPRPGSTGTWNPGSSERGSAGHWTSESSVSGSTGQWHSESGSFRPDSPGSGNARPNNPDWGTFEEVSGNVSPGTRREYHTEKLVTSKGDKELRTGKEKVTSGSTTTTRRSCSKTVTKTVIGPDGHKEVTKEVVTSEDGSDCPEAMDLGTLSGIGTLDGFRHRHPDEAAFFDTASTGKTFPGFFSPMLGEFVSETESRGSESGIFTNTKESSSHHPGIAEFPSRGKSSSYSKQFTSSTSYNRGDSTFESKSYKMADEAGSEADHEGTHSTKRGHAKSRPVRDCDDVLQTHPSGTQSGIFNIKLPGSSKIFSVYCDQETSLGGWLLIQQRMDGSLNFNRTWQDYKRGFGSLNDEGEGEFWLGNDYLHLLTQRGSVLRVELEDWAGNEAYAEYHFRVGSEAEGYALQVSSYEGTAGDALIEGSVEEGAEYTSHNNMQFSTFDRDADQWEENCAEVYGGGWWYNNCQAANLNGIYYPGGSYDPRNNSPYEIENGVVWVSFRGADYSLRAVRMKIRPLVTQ
Sequence of UniProt P02671 (P02675 45-491, chain 2 of 3, further chain): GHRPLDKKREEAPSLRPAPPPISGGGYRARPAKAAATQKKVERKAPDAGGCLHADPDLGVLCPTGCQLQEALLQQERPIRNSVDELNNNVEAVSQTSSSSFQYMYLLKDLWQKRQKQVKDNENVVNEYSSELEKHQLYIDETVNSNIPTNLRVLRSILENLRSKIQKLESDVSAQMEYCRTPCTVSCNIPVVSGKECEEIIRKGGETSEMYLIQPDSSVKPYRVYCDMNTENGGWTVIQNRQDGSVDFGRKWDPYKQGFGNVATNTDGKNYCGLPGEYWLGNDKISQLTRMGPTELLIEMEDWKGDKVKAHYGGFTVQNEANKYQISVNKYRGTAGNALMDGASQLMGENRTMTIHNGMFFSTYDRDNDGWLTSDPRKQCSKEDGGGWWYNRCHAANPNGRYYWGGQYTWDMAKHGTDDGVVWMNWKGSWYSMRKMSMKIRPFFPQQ
Sequence of UniProt P02671 (P02679 other isoform, or with tags, fused parts or gaps, chain 3 of 3, further chain): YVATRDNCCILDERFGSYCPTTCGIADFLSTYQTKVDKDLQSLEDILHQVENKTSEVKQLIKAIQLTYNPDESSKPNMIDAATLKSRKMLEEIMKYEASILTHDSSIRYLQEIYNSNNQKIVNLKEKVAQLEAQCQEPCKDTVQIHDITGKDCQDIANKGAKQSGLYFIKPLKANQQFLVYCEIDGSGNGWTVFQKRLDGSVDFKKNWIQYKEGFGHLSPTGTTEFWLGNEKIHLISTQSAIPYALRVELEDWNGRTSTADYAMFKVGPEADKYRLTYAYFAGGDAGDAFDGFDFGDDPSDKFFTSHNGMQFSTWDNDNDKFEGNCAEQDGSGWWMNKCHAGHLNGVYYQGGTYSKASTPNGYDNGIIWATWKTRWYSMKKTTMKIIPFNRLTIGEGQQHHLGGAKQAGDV

K m of overall fibrin breakdown by plasmin (clot lysis time by turbidity against fibrinogen 0 to 5 µM, batroxobin clots, 5 nM active plasmin) [1]	K m of overall fibrin breakdown by plasmin (clot lysis time by turbidity against fibrinogen 0 to 5 µM, batroxobin clots, 5 nM active plasmin) [2]	Substance
3.1 µM	4.9 µM	porcine plasmin (from UniProt P06867 20-809; P06867 20-809) (enzyme)
1.1 µM	1.3 µM	human plasmin (from UniProt P00747 20-580) (enzyme)
